B1: 1.56a (VHH)
VHH: QVQLVESGGGVVRLGGSLRLSCAASGFSFVDYGMSWVRQAPGQGLEWVSGISRNGGSTGYADSVKDRFTISRDNAKNTLYLQMNSLRAEDTALYYCARDPYSSGWSYDSFDIWGQGTMVTVSS
B2: 1.25b (VHH)
VHH: QVTLKESGGGLVKPGGSLRLSCAASGFTFSDYYMSWFRQAPGKEREWISFISSSGSTTYYADSVKGRFTISRDNAKNSLYLQMNSLRAEDTAVYYCAREAPLRLGESPHDAFDFWGQGTMVTVSS
B3: 1.24b (VHH)
VHH: QVTLKESGGGLVKPGGSLRLSCAASGFTFSDYDMYWIRQAPGKGLEWVSYISRGGSVTYYADSVKGRFTISRDNAKNALYLQMNSLRAEDMAVYFCATEAPLRLGETPHAAFDIWGQGTMVTVSS
B4: 1.33b (VHH)
VHH: QITLKESGGGLVKPGGSLRLSCAASGFTFSDYDMYWVRQAPGKGLEWVSYISRGGSVTYYADSVKGRFTISRDNAKNALYLQMNSLRAEDMAVYFCATEAPLRLGETPHAAFDIWGQGTMVTVSS
B5: 1.28b (VHH)
VHH: QITLKESGGGLVKPGGSLRLSCAASGFTFSDYDMYWIRQAPGKGLEWVSYISRGGSVTYYADSVKGRFTISRDNAKNALYLQMNSLRAEDMAVYFCATEAPLRLGETPHAAFDIWGQGTMVTVSS
B6: 1.12b (VHH)
VHH: EVQLLESGGGVVKPGGSLRLSCAASGFTFSDYYMGWIRQAPGKGLEWISYISSSGSTIYYADSVKGRFTISRDNAKNSLYLQMNSLRAEDTAVYYCAREAPLRLGESPHDAFDIWGQGTMVTVSS
B7: 1.15b (VHH)
VHH: QVQLVESGGGLVKPGGSLRLSCAASGFTFSDNSMSWIRQAPGKGLEWVSYISSSGSTIYYADSVKGRFTISRDNAKNSLYLQMNTLRAEDTAVYYCAKEAPLRLGESPHDAFDIWGQGTMVTVSS
B8: 1.26b (VHH)
VHH: QVTLKESGGGLVKPGGSLRLSCAASGFTFSDNSMSWIRQAPGKGLEWVSYISSSGSTIYYADSVKGRFTISRDNAKNSLYLQMNTLRAEDTAVYYCAKEAPLRLGESPHDAFDIWGQGTMVTVSS
B9: 1.90a (VHH)
VHH: EVQLVESGGGVVRPGGSLRLSCAASGFTFDDYAWSWVRQAPGKGLEWVSGITWNGGSTGYADSVKDRFTISRDNAKNSLYLQMNSLRAEDTALYYCVRDKYSYAWSYDGFDIWGQGTMVTVSS
B10: 1.101a (VHH)
VHH: EVQLVESGGGVVRPGGSLRLSCAASGFTFDDYAMSWVRQAPGKGLEWVSGITWRGGSTGYADSVKDRFTISRDNAKNSLYLQMNSLRAEDTALYYCVRDKYSYAWSYDGFDIWGQGTMVTVSS
B11: 1.95a (VHH)
VHH: EVQLVESGGGVVRPGGSLRLSCAASGFTFDDYAMSWVRQAPGKGLEWVSGITWSGGSTGYADSVKDRFTISRDNAKNSLYLQMNSLRAEDTALYYCVRDKYSYAWSYDGFDIWGQGTMVTVSS
B12: 1.102a (VHH)
VHH: EVQLVESGGGVVRPGGSLRLSCAASGFTFDDYAMSWVRQAPGKGLEWVSGITWNGGSTGYADSVKDRFTISRDNAKNSLYLQMNSLRAEDTALYYCVRDKYSYAWSYDVFDIWGQGTMVTVSS
B13: 1.100a (VHH)
VHH: EVQLVESGGGVVRPGGSLRLSCAASGFTFDDYAMSWVRQAPGKGLEWVSGITWKGGSTGYADSVKDRFTISRDNAKNSLYLQMNSLRAEDTALYYCVRDKYSYAWSYDGFDIWGQGTMVTVSS
B14: 1.94a (VHH)
VHH: EVQLVESGGGVVRPGGSLRLSCAASGFTFDDYAMSWVRQAPGKGLEWVSGITWTGGSTGYADSVKDRFTISRDNAKNSLYLQMNSLRAEDTALYYCVRDKYSYAWSYDGFDIWGQGTMVTVSS
B15: 1.98a (VHH)
VHH: EVQLVESGGGVVRPGGSLRLSCAASGFTFDDYAMSWVRQAPGKGLEWVSGITWLGGSTGYADSVKDRFTISRDNAKNSLYLQMNSLRAEDTALYYCVRDKYSYAWSYDGFDIWGQGTMVTVSS
B16: 1.93a (VHH)
VHH: EVQLVESGGGVVRPGGSLRLSCAASGFTFDDYAVSWVRQAPGKGLEWVSGITWNGGSTGYADSVKDRFTISRDNAKNSLYLQMNSLRAEDTALYYCVRDKYSYAWSYDGFDIWGQGTMVTVSS
B17: 1.99a (VHH)
VHH: EVQLVESGGGVVRPGGSLRLSCAASGFTFDDYAMSWVRQAPGKGLEWVSGITWNGGSTGYADSVKGRFTISRDNAKNSLYLQMNSLRAEDTALYYCVRDKYSYAWSYDGFDIWGQGTMVTVSS
B18: 1.97a (VHH)
VHH: EVQLVESGGGVVRPGGSLRLSCAASGFTFDDYAMSWVRQAPGKGLEWVSGITWIGGSTGYADSVKDRFTISRDNAKNSLYLQMNSLRAEDTALYYCVRDKYSYAWSYDGFDIWGQGTMVTVSS
B19: 1.91a (VHH)
VHH: EVQLVESGGGVVRPGGSLRLSCAASGFTFDDYARSWVRQAPGKGLEWVSGITWNGGSTGYADSVKDRFTISRDNAKNSLYLQMNSLRAEDTALYYCVRDKYSYAWSYDGFDIWGQGTMVTVSS
B20: 1.96a (VHH)
VHH: EVQLVESGGGVVRPGGSLRLSCAASGFTFDDYAMSWVRQAPGKGLEWVSGITWPGGSTGYADSVKDRFTISRDNAKNSLYLQMNSLRAEDTALYYCVRDKYSYAWSYDGFDIWGQGTMVTVSS
B21: 1.92a (VHH)
VHH: EVQLVESGGGVVRPGGSLRLSCAASGFTFDDYAFSWVRQAPGKGLEWVSGITWNGGSTGYADSVKDRFTISRDNAKNSLYLQMNSLRAEDTALYYCVRDKYSYAWSYDGFDIWGQGTMVTVSS
B22: 1.52a (VHH)
VHH: EVQLLESGGGVVRPGGSLRLSCAASGFTFDDYGMSWVRQPPGKGLEWVSGISRNGGSAGYSDSAKDRFTISRDNAKNSLYLQMNSLRADDTAMYYCAREKYSSGWSYDDFDIWGQGTMVTVSS
B23: 1.53a (VHH)
VHH: QVQLVESGGGVVRPGGSLRLSCAASGFTFDDYGMSWVRQSPGKGLEWVSGISRNGGSAGYSDSAKDRFTISRDNAKNSLYLQMNSLRADDTAMYYCAREKYSSGWSYDDFDIWGQGTMVTVSS
B24: 1.55a (VHH)
VHH: EVQLVESGGGVVRPGGSLRLSCAASGFTFDDYGMSWVRQPPGKGLEWVSGISRNGGSAGYSDSAKDRFTISRDNAKNSLYLQMNSLRADDTAMYYCAREKYSSGWSYDDFDIWGQGTMVTVSS
B25: 1.57a (VHH)
VHH: QVQLVESGGGVVRPGGSLRLSCAASGFTFDDYGMSWVRQAPGKGLEWVSGISRNGGSTGYTASVKDRFTISRDNAKNSLYLQMNSLRADDTAMYYCAREKYSSGWSYDDFDIWGQGTMVTVSS
B26: 1.54a (VHH)
VHH: QVQLVESGGGVVRPGGSLRLSCAASGFTFDDYGMSWVRQPPGKGLEWVSGISRNGGSAGYSDSAKDRFTISRDNAKNSLYLQMNSLRADDTAMYYCAREKYSSGWSYDDFDIWGQGTMVTVSS
B27: 1.40b (VHH)
VHH: EVQLVESGGGLVKPGGSLRLSCAASGFTFSDSSMSWIRQAPGRGLEWISYISSGGGIIYYTDSVKGRFTISRDNAKNSLYLQMNSLRVEDTAVYYCAKEAPLRLGESPHDAFDIWGHGTMVTVSS
B28: 1.77b-2GS-1.21a (other)
chain: EVQLVESGGGLVKPGGSLRLSCAASGFTFSDSSMTWMRQAPGKGLEWVSYISSGGGVKFYTDSVKGRFTISRDNAKNSLYLQMNSLRAEDTAVYYCAREAPLRLGESPHDAFDISGQGTMVTVSSGGGGSGGGGSEVQLVESGGGLVQPGRSLRLSCAASGFTFDDYAMHWVRQAPGKDLEWVSGISWNGGSMGYAASVKGRFTISRDNAKNSLYLQMNSLRAEDTALYYCVREKGPGLTGSTADYYGLDVWGQGTMVTVSS
B29: 1.92b-4GS-1.99a (other)
chain: EVQLVESGGGLVKPGGSLRLSCAASGFTFSDESMTWMRQAPGKGLEWVSYISSGGGVKFYADSVKGRFTISRDNAKNSLYLQMNSLRAEDTAVYYCAREAPLRLGESPHDAFDISGQGTMVTVSSGGGGSGGGGSGGGGSGGGGSEVQLVESGGGVVRPGGSLRLSCAASGFTFDDYAMSWVRQAPGKGLEWVSGITWNGGSTGYADSVKGRFTISRDNAKNSLYLQMNSLRAEDTALYYCVRDKYSYAWSYDGFDIWGQGTMVTVSS
B30: 1.92b-4GS-1.103a (other)
chain: EVQLVESGGGLVKPGGSLRLSCAASGFTFSDESMTWMRQAPGKGLEWVSYISSGGGVKFYADSVKGRFTISRDNAKNSLYLQMNSLRAEDTAVYYCAREAPLRLGESPHDAFDISGQGTMVTVSSGGGGSGGGGSGGGGSGGGGSEVQLVESGGGVVRPGGSLRLSCAASGFTFDDYAMSWVRQAPGKGLEWVSGITWNGGSTGYADSVKDRFTISRDNAKNSLYLQMNSLRAEDTALYYCVRDKYSYAWSYDDFDIWGQGTMVTVSS

The binders below were run against T1, human PD-1 expressed on cells (CHO TREX human PD1 cell line, full-length human PD-1 sequence) (human, UniProt Q15116 21-288) (assay: worded summary of the screens).
T1 construct: Also used for human PD-1 on Jurkat reporter cells, on PathHunter cells and on PHA-stimulated human CD4+ T cells; also called CHO human PD1 cells; CHO human PD-1 cells
T1 sequence (Q15116 21-288): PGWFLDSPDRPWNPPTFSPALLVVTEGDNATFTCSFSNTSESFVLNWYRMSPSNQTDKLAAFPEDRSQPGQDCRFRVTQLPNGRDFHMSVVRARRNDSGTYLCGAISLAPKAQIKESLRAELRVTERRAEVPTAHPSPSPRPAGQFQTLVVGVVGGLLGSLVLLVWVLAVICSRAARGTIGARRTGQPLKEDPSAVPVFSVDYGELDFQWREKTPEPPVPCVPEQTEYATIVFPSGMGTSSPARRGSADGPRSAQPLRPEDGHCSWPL
B1: binds. B2: binds. B3: binds. B4: binds. B5: binds. B6: binds. B7: binds. B8: binds. B9: binds. B10: binds. B11: binds. B12: binds. B13: binds. B14: binds. B15: binds. B16: binds. B17: binds. B18: binds. B19: binds. B20: binds. B21: binds. B22: binds. B23: binds. B24: binds. B25: binds. B26: binds. B27: binds.

The binders below were run against T1, human PD-1 expressed on cells (CHO TREX …) (assay: cell-based or functional assay).
B28 was tested, and the “EC50 (M), NFAT-Luciferase reporter gene assay” value (“EC50 (M)” for short) was 2.1e-09 M. B29 was tested, and the “EC50 (M)” value was 1e-09 M. With B30 the “EC50 (M)” value was 1.2e-09 M.

Reference: patent publication US20220306744A1 (CRESCENDO BIOLOGICS, published 2022)
